Tests used:
[1] = biological target: T1, PE9413, C-terminal biotinylated peptide mapping on Exon6 of the SCF molecule (SCF248) (C-terminal biotin); experiment: yeast-displayed scFv, flow cytometry titration of biotinylated peptide
T1 construct: also called C-terminal biotinylated PE9413; C-ter PE9413
T1 peptide: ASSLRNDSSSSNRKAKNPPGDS

[2] = biological target: T1, PE9413, C-terminal biotinylated peptide …; experiment: yeast-displayed scFv, flow cytometry titration of biotinylated peptide (FIG. 16D)
Description: Yeast display methods were conducted as described by Ferrara et al. Briefly, cells were induced in induction media overnight at 20° C. 10⁵ induced cells were washed twice with wash buffer (PBS supplemented with 0.5% BSA) and incubated at room temperature with the biotinylated antigen diluted in PBS. To assess binding of the scFv, a C-terminal biotinylated peptide mapping on Exon6 of the SCF molecule was used (referred to herein as “PE9413”). […] The induced yeast population was stained with biotinylated PE9413 at different concentrations ranging from 50 nM to 2 μM (0 nM, 50 nM, 100 nM, 250 nM, 500 nM, 750 nM, 1000 nM, or 2000 nM). Volumes and incubation times were carefully adjusted according to parameters described in [3]. After the incubation with the target peptide, the yeast cells were washed twice with cold wash buffer and subsequently incubated at 4° C. for an additional 30 minutes with fluorescently labelled streptavidin (Streptavidin-AlexaFlu633), to detect binding of the biotinylated PE9413, and with the labelled anti-SV5 (anti-SV5-PE), to detect the scFv display levels on yeast cells. Following 2 washes with cold yeast wash buffer, the cells were resuspended in cold PBS and analyzed in the flow cytometer (FIG. 1).
The FACS sorted population was sorted kinetically to find clones with an improved Koff compared to the parenteral scFv. […]

- Kd [1]: 174 nM
- Kd [2]: 232 nM
B1: parental humanized 5H10 VK3/VH1 scFv (VH-linker-VL-SV5tag) displayed on yeast (scFv, V domains shown)
VH: QVQLVQSGAELKKPGSSVKISCKSSGYAFSSYWMNWVKQRPGQGLEWIGQIYPGDGDTHYNGKFKGKATLTADKSTSTAYMELSSLTSEDSAVYFCSSSNWVGSYWGQGTLVTVSS
VL: DVVMTQSPLSLPVTLGQPASISCKSSQSLLESDGKTYLNWLQQRPGQSPRRLIYLVSRLDSGVPDRFSGSGSGTDFTLKISRVEAEDVGVYYCWQGTHLPQTFGGGTKVEIK
notes: also called parental scFv; parental antibody; not shown: linker; SV5 tag

Reference: patent US20240182556A1 (OPSIDIO, published 2024)
